In US20180244777A1 (NUMAB THERAPEUTICS, published 2018):

T1: linear 15mer peptides derived from cynomolgus CD3ε residues 5-20 (Set 4) (cynomolgus)
T1 construct: also called peptides spanning residues 5-20
T1 peptide: EEMGSITQTPYQVSIS

T2: linear 15mer peptides derived from human CD3ε residues 5-20 (Set 3) (human)
T2 construct: also called peptides spanning residues 5-20
T2 peptide: EEMGGITQTPYKVSIS

T3: linear 15mer peptide derived from human CD3ε residues 2-16 (wild type of the substitution library, Set 1) (human)
T3 construct: Probed as a saturation mutagenesis library on a peptide array
T3 peptide: DGNEEMGGITQTPYK

T4: linear 15mer peptide derived from cynomolgus CD3ε residues 2-16 (wild type of the substitution library, Set 2) (cynomolgus)
T4 construct: Probed as a saturation mutagenesis library on a peptide array
T4 peptide: DGNEEMGSITQTPYQ


Key:
[1] = biological target: human CD3ε expressed on the cell surface of T cells (Jurkat cells; human CD8+ T cells) (human) (UniProt P07766); test: cell-based or functional assay
[2] = biological target: T5, human CD3ε expressed on the cell surface of T cells (Jurkat cells; human CD8+ T cells) (human, UniProt P07766 23-207); test: cell-based ELISA on Jurkat cells, CD3ε-deficient Jurkat subtracted
T5 construct: whole, on cells; also called native CD3ε embedded in the TCR complex on Jurkat cells
Experimental: Jurkat cells (clone E6-1), a human T cell line, were seeded at 300,000 cells/well in round bottom 96-well plates in 100 μl phosphate-buffered saline (PBS) containing 10% FBS. Five-fold serial dilutions of anti-CD3 rabbit monoclonal antibodies ranging from 90 nM to 0.0058 nM were added to the plates in 100 μl PBS containing 10% FBS. […] This secondary antibody was linked to the enzyme horseradish peroxidase (HRP). HRP activity was measured by addition of TMB substrate (3,3′,5,5′-tetramethylbenzidine, KPL, Cat. No. 53-00-00), which in a colorimetric reaction is processed by the HRP. The color intensity of the processed substrate is directly proportional to the amount of anti-CD3 antibody bound to Jurkat cells. To quantify color intensity, light absorbance (optical density) at the respective wave length was measured using a microtiter plate reader (Infinity reader M200 Pro, Tecan).
To correct for unspecific binding of the antibodies to unknown components presented on the cell surface of Jurkat cells, a CD3ε deficient derivative of the Jurkat T cell line (J.RT3-T3.5) was used. Binding of the monoclonal antibodies to this cell line was measured as described above for the Jurkat cells. For quantification of specific binding to Jurkat cells, the optical density for binding to the negative control was subtracted from the optical density for binding to Jurkat cells. Data were analyzed using a four-parameter logistic curve fit using the Softmax Data Analysis Software (Molecular Devices), and the molar concentration of anti-CD3 antibody required to reach 50% binding (EC₅₀, mid-OD of the standard curve) was derived from dose response curves.

[3] = biological target: T6, cynomolgus monkey heterodimeric single-chain CD3εγ extracellular domain (cynomolgus monkey, UniProt Q95LI5 22-117; Q95LI7 23-113); test: SPR; ratio of the KDs for cyno and human single-chain CD3εγ
T6 sequence (Q95LI7 other isoform, or with tags, fused parts or gaps): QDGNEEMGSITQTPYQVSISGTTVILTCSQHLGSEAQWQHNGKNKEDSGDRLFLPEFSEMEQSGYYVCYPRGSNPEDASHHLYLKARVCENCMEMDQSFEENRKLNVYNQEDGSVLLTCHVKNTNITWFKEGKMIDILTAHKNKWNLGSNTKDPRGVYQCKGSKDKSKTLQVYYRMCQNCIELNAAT

[4] = biological target: T7, human heterodimeric single-chain CD3εγ extracellular domain (human, UniProt P07766 23-126; P09693 23-116); test: SPR, rabbit IgG captured, human single-chain CD3εγ ECD injected
T7 construct: extracellular domain; Produced in-house; also called scCD3γε; human CD3ge
Experimental: Binding affinities of monoclonal rabbit anti-CD3 antibodies were measured by surface plasmon resonance (SPR) using a MASS-1 SPR instrument (Sierra Sensors). […] Rabbit monoclonal antibodies were captured by the immobilized anti-rabbit IgG antibody. Two-fold serial dilutions of human heterodimeric single-chain CD3εγ extracellular domain (produced in-house) ranging from 90 to 2.81 nM were injected into the flow cells for 3 min and dissociation of the protein from the IgG captured on the sensor chip was allowed to proceed for 5 min. After each injection cycle, surfaces were regenerated with two injections of 10 mM glycine-HCl. The apparent dissociation (kd) and association (ka) rate constants and the apparent dissociation equilibrium constant (KD) were calculated with the MASS-1 analysis software (Analyzer, Sierra Sensors) using one-to-one Langmuir binding model.

[5] = biological target: T6, cynomolgus monkey heterodimeric …; test: SPR, rabbit IgG captured, cyno single-chain CD3εγ ECD injected
[6] = biological target: T5, human CD3ε expressed on the cell …; test: cell-based or functional assay
[7] = biological target: T1, linear 15mer peptides derived from …; test: peptide array ELISA, Set 4
Experimental: (§1) The binding of the antibodies to each of the synthesized peptides was tested by ELISA. The peptide arrays were incubated with primary antibody solution (overnight at 4° C.). After washing, the peptide arrays were incubated with a 1/1000 dilution of an antibody peroxidase conjugate (SBA, cat.nr.2010-05) for one hour at 25° C. After washing, the peroxidase substrate 2,2′-azino-di-3-ethylbenzthiazoline sulfonate (ABTS) and 2 μl/ml of 3% H₂O₂ were added. After one hour, the color development was measured. The color development was quantified with a charge coupled device (CCD)—camera and an image processing system.

[8] = biological target: T2, linear 15mer peptides derived from …; test: peptide array ELISA, Set 3
Experimental: as §1

[9] = biological target: T3, linear 15mer peptide derived from human …; test: 15mer peptide array ELISA
[10] = biological target: T4, linear 15mer peptide derived from …; test: 15mer peptide array ELISA
mouse CD3ε = mouse CD3ε (mouse, UniProt P22646 22-108, limits assumed); test: SPR
mouse CD3ε, sequence (P22646 22-108 limits assumed): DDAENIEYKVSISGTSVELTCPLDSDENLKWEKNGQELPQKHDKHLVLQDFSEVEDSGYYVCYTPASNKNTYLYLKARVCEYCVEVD

Row | Molecule | EC50 [2] [nM] | KD (human)/KD (cyno) [3] | Kd [4] [nM] | koff [4] [s⁻¹] | kon [4] [M⁻¹ s⁻¹] | Kd [5] [nM] | koff [5] [s⁻¹] | kon [5] [M⁻¹ s⁻¹] | further results
1 | TR66 (antibody) |  |  |  |  |  |  |  |  | Fold increase in CD69 expression [MFI normalized to neg. ctrl.], 1.25 µg/ml anti-CD3 IgG [1]: 1.6 fold; Fold increase in CD69 expression [MFI normalized to neg. ctrl.], 5 µg/ml anti-CD3 IgG [1]: 2.2 fold; Fold increase in CD69 expression [MFI normalized to neg. ctrl.], 20 µg/ml anti-CD3 IgG [1]: 3 fold
2 | OKT3 (antibody) |  |  |  |  |  |  |  |  | Fold increase in CD69 expression [MFI normalized to neg. ctrl.], 1.25 µg/ml anti-CD3 IgG [1]: 1.8 fold; Fold increase in CD69 expression [MFI normalized to neg. ctrl.], 5 µg/ml anti-CD3 IgG [1]: 2.5 fold; Fold increase in CD69 expression [MFI normalized to neg. ctrl.], 20 µg/ml anti-CD3 IgG [1]: 3.1 fold
3 | clone-04 (antibody, V domains shown, Recombinant rabbit IgG; also called Clone 4) VH: QSLEESGGRLVKPDETLTLTCTVSGFPLSSYAMGWFRQAPGKGLEWIGMILRSDNTYYASWAKGRFTISKTSTTVDLKITSPTTEDTATYFCARRHYNASGNPIAIGDLWGPGTLVTVSS VL: AQVLTQTPSSVSAAVGGTVTINCQSSQSVYNNNRLSWFQQKPGQPPKLLIYTTSSLASGVPSRFKGSGSGTEFTLTISDLECADAATYYCQGEFSCSRADCFNFGGGTEVVVKG | 1.87 | 36 | 0.113 | 9.88e-05 | 873000 | 4.12 | 0.00266 | 646000 | binding result [7]: no binding; Fold increase in CD69 expression [MFI normalized to neg. ctrl.], 1.25 µg/ml anti-CD3 IgG [6]: 2.6 fold; Fold increase in CD69 expression [MFI normalized to neg. ctrl.], 5 µg/ml anti-CD3 IgG [6]: 3.5 fold; Fold increase in CD69 expression [MFI normalized to neg. ctrl.], 20 µg/ml anti-CD3 IgG [6]: 7.8 fold; binding result [8]: no binding; binding result [9]: binds; binding result [10]: binds
4 | clone-09 (antibody, V domains shown, Recombinant rabbit IgG) VH: QSLEESGGRLVTPGTPLTLTCTVSGFPLNRYAMLWVRQAPGKGLEWIGLITRADKKYYASWAKGRFTISKTSTTVDLEITGPTTEDTATYFCARRHYNTDGYPVAIGDLWGPGTLVTVSS VL: AQVLTQTPSSVSAAVGGTVTISCQSNENIYSNNRLSWFQQKPGQPPNQLIYSASSLASGVPSRFKGSGSGTQFTLTISDLECDDAATYYCQGEFNCNSADCFTFGGGTEVVVKG | 0.82 | 10 | 1.14 | 0.000688 | 601000 | 11.6 | 0.00269 | 232000 | 
5 | PRO400 (Fab, V domains shown, Chimeric Fab: hamster 2C11 variable domains with human CL and CH1; also called anti-mCD3 Fab; 2C11 Fab) VH: EVQLVESGGGLVQPGKSLKLSCEASGFTFSGYGMHWVRQAPGRGLESVAYITSSSINIKYADAVKGRFTVSRDNAKNLLFLQMNILKSEDTAMYYCARFDWDKNYWGQGTMVTVSS VL: DIQMTQSPSSLPASLGDRVTINCQASQDISNYLNWYQQKPGKAPKLLIYYTNKLADGVPSRFSGSGSGRDSSFTISSLESEDIGSYYCQQYYNYPWTFGPGTKLEIKR |  |  |  |  |  |  |  |  | Kd (mouse CD3ε): 11.4 nM; koff (mouse CD3ε): 0.00266 s⁻¹; kon (mouse CD3ε): 233000 M⁻¹ s⁻¹

The next lines start with results.

Row | EC50 [2] [nM] | KD (human)/KD (cyno) [3] | Kd [4] [nM] | koff [4] [s⁻¹] | kon [4] [M⁻¹ s⁻¹] | Kd [5] [nM] | koff [5] [s⁻¹] | kon [5] [M⁻¹ s⁻¹] | Molecule | further results
6 | 0.58 | 3 | 2.97 | 0.00159 | 536000 | 10.2 | 0.00392 | 386000 | clone-01 (antibody, V domains shown, Recombinant rabbit IgG; also called purified monoclonal rabbit anti-CD3ε antibody clone-01) VH: QSVEESGGRLVTPGTPLTLTCTVSGFPLSSYAMIWVRQAPGKGLEWIGMILRAGNIYYASWAKGRFTISKTSTTVDLKITSPTTEDTATYFCARRQYNTDGYPIGIGDLWGPGTLVTVSS VL: AQVLTQTASSVSAAVGGTVTISCQSSESVYNNNRLSWFQQKPGQPPKQLIYSASSLASGVPSRFKGSGSGTQFTLTISDLECDDAATYYCQGEFSCSSADCFTFGGGTEVVVKG | 
7 | 0.28 | 3 | 3.13 | 0.00133 | 425000 | 10 | 0.00365 | 363000 | clone-11 (antibody, V domains shown, Recombinant rabbit IgG) VH: QSLEESGGRLVTPGTPLTLTCTVSGFPLSSYAMGWFRQAPGKGLEWIGMILRADNTYYASWVNGRFTISKTSTTVDLKITSPTTEDTATYFCARRHYNTYGYPVAIGDLWGPGTLVTVSS VL: AQVLTQTPSSVSAAVGGTVTINCQSSQSVYNNNRLSWFQQKPGQPPKLLIYTASSLASGVPSRFKGSGSGTEFTLTISDLECADAATYYCQGEFSCSSADCFTFGGGTEVVVKG | 
8 | 0.35 | 7 | 1.66 | 0.00126 | 757000 | 10.9 | 0.00349 | 321000 | clone-10 (antibody, V domains shown, Recombinant rabbit IgG) VH: QSLEESGGRLVTPGTPLTLTCTVSGFPLSSFAMLWVRQAPGKGLEWIGMIMRAHNMYYASWAKGRFTISKTSTTVDLEITSPTTEDTATYFCARRHYNTYGYPIAIGDLWGPGTLVTVSS VL: AQVLTQTPSSVSAAVGGTATISCQSNENIYSNNRLSWFQQKAGQPPNQLIYSASSLASGVPSRFKGSGSGTQFTLTISDLECDDAATYYCQGEFSCSSADCFTFGGGTEVVVKG | Fold increase in CD69 expression [MFI normalized to neg. ctrl.], 1.25 µg/ml anti-CD3 IgG [6]: 2.6 fold; Fold increase in CD69 expression [MFI normalized to neg. ctrl.], 5 µg/ml anti-CD3 IgG [6]: 4.2 fold; Fold increase in CD69 expression [MFI normalized to neg. ctrl.], 20 µg/ml anti-CD3 IgG [6]: 6.2 fold
9 | 0.59 | 20 | 1.11 | 0.000798 | 721000 | 22.2 | 0.00314 | 142000 | clone-12 (antibody, V domains shown, Recombinant rabbit IgG) VH: QSLEESGGRLVTPGTPLTLTCTVSGFPLSRYAMLWVRQAPGKGLEWIGLITRADNKYYASWAKGRFTISKTSTTVDLEITSPTTEDTATYFCARRHYNTDGYPIAIGDLWGPGTLVTVSS VL: AQVLTQTPSSVSATVGGTVTISCQSNENIYSNNRLSWFQQKPGQPPKLLIYSASSLASGVPSRFKGSGSGTQFTLTISDLECDDAATYYCQGEFNCNSADCFTFGGGTEVVVKG | 
